Measurements as given in paper PMC5703867, “Development of Novel Promiscuous Anti-Chemokine Peptibodies for Treating Autoimmunity and Inflammation” (Frontiers in Immunology, 2017).
Values belong to the binder of their own block, whether it stands above or below them. Where no end group is shown, it is not given here. The star is where a group is joined. Biotin = O=C1N[C@H]2[C@H](CS[C@H]2CCCCC(=O)*)N1

Target: T1, CCL2 (human, UniProt P13500 24-99)
T1 construct: CCL2, human, recombinant; source: bought: PeproTech
T1 sequence (P13500 24-99): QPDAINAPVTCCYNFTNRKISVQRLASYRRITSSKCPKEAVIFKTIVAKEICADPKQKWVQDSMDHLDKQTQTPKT
Test: ELISA; chemokine coated on maxisorp plates (0.1-1.0 µg/ml in 0.1 M NaHCO3, pH 8.6), BSA block, biotinylated synthetic peptides in TBST-BSA for 45 min at RT, detected with HRP-streptavidin or AP-anti-biotin; fold binding at 10 and 100 ng/ml peptide
Conditions: both partners purified

binding result: binds
B1: BKT120 biotinylated synthetic peptide (peptide)
peptide: LDYPIPQTVLHHGGGSK(Biotin)G
modifications: also: biotin at C-terminus, format X12GGGSK-biotin-G
notes: BKT120 peptide; C-terminal tail of the linear peptide format X12GGGSK-biotin-G; also called BTK120; source: synthetic peptide (Weizmann Institute of Science)

binding result: binds
B2: BKT130 biotinylated synthetic peptide (peptide)
peptide: SIPSHSIHSAKAGGGSK(Biotin)G
modifications: also: biotin at C-terminus, format X12GGGSK-biotin-G
notes: BKT130 peptide; C-terminal tail of the linear peptide format X12GGGSK-biotin-G; also called BTK130; source: synthetic peptide (Weizmann Institute of Science)
